The source of these data is article PMC11903765, “ARR1 and AHP interactions in the multi-step phosphorelay system” (Frontiers in Plant Science, 2025).

Test [1] has as its target biotinylated ARR1-REC-GARP (ARR1 residues 1-296), construct for BLI (Arabidopsis thaliana) (UniProt Q940D0). Put plainly: BLI; biotinylated ARR1-REC-GARP immobilised on Octet SA biosensors, AHPs as analytes; fit of the steady-state data; 20 mM HEPES/NaOH pH 7.0, 50 mM NaCl, 50 mM KCl, 0.5 mM TCEP, 0.5% BSA, 0.05% Tween 20; 25°C. In general terms: BLI is a label-free optical method that tracks binding on a fibre tip over time.

Test [2] shares this target. Put plainly: BLI; biotinylated ARR1-REC-GARP immobilised on Octet SA biosensors, AHPs as analytes; fit of the binding kinetics; 20 mM HEPES/NaOH pH 7.0, 50 mM NaCl, 50 mM KCl, 0.5 mM TCEP, 0.5% BSA, 0.05% Tween 20; 25°C.
In test [3] the target is T1, biotinylated ARR1-REC-GARP (ARR1 residues 1-296), construct for BLI (Arabidopsis thaliana, UniProt Q940D0 1-296, biotin on the Avi-tag (by co-expressed BirA)).
T1 construct: ARR1, Arabidopsis thaliana, UniProt Q940D0, residues 1-296 (REC domain and GARP motif); cloned into pMCSG62, which provides the Avi-tag; The results define ARR1-RG as 38-296; the methods give 1-296 for the BLI construct; also called ARR1-RG; biotinylated variant of ARR1-RG; source: E. coli BL21 Gold, co-expressed with BirA, purified (Ni-NTA)
T1 sequence (looked up): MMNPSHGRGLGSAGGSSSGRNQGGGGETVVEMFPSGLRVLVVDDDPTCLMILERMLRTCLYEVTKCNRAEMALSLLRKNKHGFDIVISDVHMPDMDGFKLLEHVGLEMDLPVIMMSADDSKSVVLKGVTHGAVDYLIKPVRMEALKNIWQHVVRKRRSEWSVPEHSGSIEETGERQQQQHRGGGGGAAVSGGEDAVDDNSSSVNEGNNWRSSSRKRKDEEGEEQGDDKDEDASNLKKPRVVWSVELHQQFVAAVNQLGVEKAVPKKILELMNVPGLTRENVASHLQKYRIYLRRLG
Briefly: BLI; biotinylated ARR1-REC-GARP immobilised on Octet SA biosensors, AHPs as analytes; fit of the steady-state data; 20 mM HEPES/NaOH pH 7.0, 50 mM NaCl, 50 mM KCl, 0.5 mM TCEP, 0.5% BSA, 0.05% Tween 20; 25°C. The following applies: both partners purified.

Test [4] concerns the target T2, ARR1-REC-GARP (ARR1 residues 38-296), construct for structural studies (Arabidopsis thaliana, UniProt Q940D0 38-296).
T2 construct: ARR1, Arabidopsis thaliana, UniProt Q940D0, residues 38-296: REC domain (38-158), linker (159-235, not visible in the map), GARP motif (236-296); cloned into pMCSG53; TEV protease was not able to cleave the His-tag, so it stayed on the protein; also called ARR1-RG; source: E. coli BL21 Gold, purified (Ni-NTA; then SEC of the complex)
T2 sequence (looked up): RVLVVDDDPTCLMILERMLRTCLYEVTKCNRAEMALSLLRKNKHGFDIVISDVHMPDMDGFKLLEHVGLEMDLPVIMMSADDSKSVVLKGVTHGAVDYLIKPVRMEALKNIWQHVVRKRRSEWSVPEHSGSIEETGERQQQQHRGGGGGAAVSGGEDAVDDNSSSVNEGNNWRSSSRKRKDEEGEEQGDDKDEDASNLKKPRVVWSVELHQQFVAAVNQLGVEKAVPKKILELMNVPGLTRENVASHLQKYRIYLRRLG
Briefly: crystal structure; complex from mixing 1 ARR1 : 1.5 AHP1, purified by SEC; crystals from Morpheus G11, pH 8.5, 32.5 mg/mL; 2.9 Å; two complexes in the asymmetric unit. The following applies: both partners purified. On the technique in general: In gel filtration, larger molecules generally elute earlier.

The target of test [5] is T1, biotinylated ARR1-REC-GARP (ARR1 …). Put plainly: BLI; biotinylated ARR1-REC-GARP immobilised on Octet SA biosensors, AHPs as analytes; fit of the binding kinetics; 20 mM HEPES/NaOH pH 7.0, 50 mM NaCl, 50 mM KCl, 0.5 mM TCEP, 0.5% BSA, 0.05% Tween 20; 25°C. The following applies: both partners purified.

For orientation: Kd means the concentration at which binding is half-saturated. Low values mean higher affinity, high ones lower affinity. The koff is the rate constant with which the complex falls apart. A lower koff goes with a long-lived complex. By kon is commonly meant a measure of how fast the partners come together. With “AHP2 (Arabidopsis histidine-containing phosphotransfer protein 2) (natural protein)”, the Kd in test [1] was found to be 160 nM. In test [2], this molecule showed a Kd of 160 nM, a koff of 0.0913 s⁻¹ and a kon of 573000 M⁻¹ s⁻¹.
In turn, “AHP3 (Arabidopsis histidine-containing phosphotransfer protein 3) (natural protein)” showed a Kd in test [1] of 175 nM. In addition, in test [2], the Kd came to 174 nM, the koff stood at 0.0917 s⁻¹ and the kon came to 522000 M⁻¹ s⁻¹.
On to “AHP4 (Arabidopsis histidine-containing phosphotransfer protein 4) (natural protein)”, for which the Kd in test [1] was 170 nM. Further, in test [2], the Kd amounted to 166 nM, the dissociation rate constant (koff) came to 0.06 s⁻¹ and the on-rate constant (kon) was found to be 360000 M⁻¹ s⁻¹.
In test [1], “AHP5 (Arabidopsis histidine-containing phosphotransfer protein 5) (natural protein)” had a Kd of 150 nM. Further, in test [2], the Kd is 152 nM, the koff worked out at 0.089 s⁻¹ and the kon came out at 588000 M⁻¹ s⁻¹.

B1: AHP1 (Arabidopsis histidine-containing phosphotransfer protein 1), full length (natural protein, Arabidopsis thaliana, UniProt Q9ZNV9 1-154, looked up)
chain: MDLVQKQKSLQDYTKSLFLEGILDSQFLQLQQLQDESNPDFVSQVVTLFFQDSDRILNDLSLSLDQQVVDFKKVDPHVHQLKGSSSSIGAQRVKNACVVFRSFCEQQNVEACHRCLQQVKQEYYLVKNRLETLFKLEQQIVASGGMIPAVELGF
notes: AHP1, Arabidopsis thaliana, UniProt Q9ZNV9, full-length protein cloned from A. thaliana cDNA into pMCSG53; Unphosphorylated; source: E. coli BL21 Gold, purified (Ni-NTA, TEV digestion, second Ni-NTA, SEC)
By stoichiometry N is commonly meant a count of units in the complex or per binding partner. In test [3], B1 showed a Kd of 94 nM. Moreover, the “stoichiometry N” value in test [4] was determined as 1. In test [5], the affinity, expressed as Kd, was 94 nM; the koff was found to be 0.0423 s⁻¹; the kon stood at 444000 M⁻¹ s⁻¹.
